Measurements reported in paper PMC12151379 (2025).

B1: RIM1_C2B (residues 1166–1334) (domain or fragment)
chain: GPAQLVGRQTLATPAMGDIQIGMEDKKGQLEVEVIRARSLTQKPGSKSTPAPYVKVYLLENGACIAKKKTRIARKTLDPLYQQSLVFDESPQGKVLQVIVWGDYGRMDHKCFMGVAQILLEELDLSSMVIGWYKLFPPSSLVDPTLAPLTRRASQSSLESSSGPPCIRS
B2: liprin-α2_CC2N (residues 300–404) (domain or fragment)
chain: EVEQEAETARKDLIKTEEMNTKYQRDIREAMAQKEDMEERITTLEKRYLSAQRESTSIHDMNDKLENELANKEAILRQMEEKNRQLQERLELAEQKLQQTMRKAE

Columns and labels:
Test in all cases: ITC
[1] = target: T1, liprin-α2_CC2N A350S (human, UniProt O75334 300-404, A350S)
T1 sequence: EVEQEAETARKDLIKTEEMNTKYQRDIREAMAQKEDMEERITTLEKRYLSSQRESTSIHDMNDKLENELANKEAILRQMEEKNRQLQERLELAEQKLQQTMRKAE

[2] = target: T2, liprin-α2_CC2 (residues 259–542) (human, UniProt O75334 259-542)
T2 chain: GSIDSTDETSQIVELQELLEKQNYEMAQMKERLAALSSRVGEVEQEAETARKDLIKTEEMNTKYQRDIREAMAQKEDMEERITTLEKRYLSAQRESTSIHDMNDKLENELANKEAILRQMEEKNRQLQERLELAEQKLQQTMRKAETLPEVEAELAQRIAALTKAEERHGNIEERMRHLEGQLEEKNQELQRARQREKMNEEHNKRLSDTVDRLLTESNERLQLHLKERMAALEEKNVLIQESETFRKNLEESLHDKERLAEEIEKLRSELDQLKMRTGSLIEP

[3] = target: B2
[4] = target: T3, liprin-α2_CC2N E380R (human, UniProt O75334 300-404, E380R)
T3 sequence: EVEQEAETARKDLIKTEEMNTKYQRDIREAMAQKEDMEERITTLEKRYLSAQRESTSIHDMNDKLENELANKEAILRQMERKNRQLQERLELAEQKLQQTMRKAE

[5] = target: T4, RIM1_C2B K1240E (Rattus norvegicus)
T4 chain: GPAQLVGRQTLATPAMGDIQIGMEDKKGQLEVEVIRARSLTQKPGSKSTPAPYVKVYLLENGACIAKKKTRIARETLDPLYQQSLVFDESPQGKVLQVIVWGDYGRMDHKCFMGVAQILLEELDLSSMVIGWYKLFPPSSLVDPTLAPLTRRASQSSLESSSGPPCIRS

[6] = target: T5, RIM1_C2B R1236E (Rattus norvegicus)
T5 chain: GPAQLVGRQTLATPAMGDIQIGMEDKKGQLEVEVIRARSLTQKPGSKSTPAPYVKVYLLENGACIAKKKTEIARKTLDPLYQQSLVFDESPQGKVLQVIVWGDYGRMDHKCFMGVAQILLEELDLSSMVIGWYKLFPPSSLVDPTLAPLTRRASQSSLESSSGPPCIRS

[7] = target: T6, RIM1_C2B L1245Q (Rattus norvegicus)
T6 chain: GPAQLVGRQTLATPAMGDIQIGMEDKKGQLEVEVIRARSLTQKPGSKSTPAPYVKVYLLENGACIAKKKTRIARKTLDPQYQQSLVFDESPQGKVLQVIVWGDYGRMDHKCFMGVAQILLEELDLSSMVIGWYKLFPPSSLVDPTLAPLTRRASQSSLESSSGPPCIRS

[8] = target: B1

**Q.** Which results are given for B1?
**A.** Kd [1]: 5.7 µM; Kd [2]: 5 µM; Kd [3]: 4 µM; Kd [4]: 8.2 µM

**Q.** How did the Kd [5] turn out when B2 was run?
**A.** 25 µM

**Q.** And the Kd [6]?
**A.** 27 µM

**Q.** And the Kd [7]?
**A.** > 100 µM

**Q.** And the Kd [8]?
**A.** 4 µM

B3: liprin-α2_CC2N R383A (protein)
chain: EVEQEAETARKDLIKTEEMNTKYQRDIREAMAQKEDMEERITTLEKRYLSAQRESTSIHDMNDKLENELANKEAILRQMEEKNAQLQERLELAEQKLQQTMRKAE
**Q.** With B3 as the binder, how does the Kd [8] read?
**A.** 24 µM

B4: liprin-α2_CC2N E379R (protein)
chain: EVEQEAETARKDLIKTEEMNTKYQRDIREAMAQKEDMEERITTLEKRYLSAQRESTSIHDMNDKLENELANKEAILRQMREKNRQLQERLELAEQKLQQTMRKAE
**Q.** How did the Kd [8] turn out when B4 was run?
**A.** 23 µM
